Measurements as given in paper PMC2063917.

Legend:
His6-TIP47(152-434) = His6-TIP47(152-434) (UniProt O60664); experiment: pull-down
[1] = biological target: NH2-terminal His6-tagged p40 (UniProt Q7Z6M1); experiment: pull-down
Sequence of UniProt Q7Z6M1 (Q7Z6M1 whole entry): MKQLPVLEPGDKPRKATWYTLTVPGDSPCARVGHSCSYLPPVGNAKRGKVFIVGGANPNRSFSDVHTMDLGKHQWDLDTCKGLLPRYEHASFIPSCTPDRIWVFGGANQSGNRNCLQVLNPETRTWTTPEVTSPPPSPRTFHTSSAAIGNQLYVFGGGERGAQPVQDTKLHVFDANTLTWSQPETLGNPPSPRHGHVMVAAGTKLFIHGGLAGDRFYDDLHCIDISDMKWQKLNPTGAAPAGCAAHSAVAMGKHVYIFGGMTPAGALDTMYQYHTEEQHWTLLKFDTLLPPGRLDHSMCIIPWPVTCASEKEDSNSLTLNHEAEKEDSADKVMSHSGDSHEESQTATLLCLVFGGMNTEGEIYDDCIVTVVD

Sequence of UniProt O60664 (O60664 152-434): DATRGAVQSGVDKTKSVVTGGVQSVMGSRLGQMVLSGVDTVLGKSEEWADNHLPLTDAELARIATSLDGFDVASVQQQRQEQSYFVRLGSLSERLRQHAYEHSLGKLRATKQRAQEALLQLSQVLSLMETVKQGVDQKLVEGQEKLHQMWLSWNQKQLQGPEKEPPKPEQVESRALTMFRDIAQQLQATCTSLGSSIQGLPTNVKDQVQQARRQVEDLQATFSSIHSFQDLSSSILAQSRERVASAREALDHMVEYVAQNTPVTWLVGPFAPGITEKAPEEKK

## Rab9-CLLL, untagged (from UniProt P24408 1-201) (natural protein)
His6-TIP47(152-434)
  pmol Rab9 bound (taken as 100% binding): 1.5 pmol
[1]
  pmol Rab9 bound (taken as 100% binding): 3.9 pmol
